Article PMC13270198
pKd, pKi: −log10 of the molar value. Values joined by “and” are separate entries in the source; they are usually repeats but may differ in a detail not shown here. Equal values may be shown once.

Assays:
[1] = system: Cas12a2 (SuCas12a2) (Sulfuricurvum sp. PC08-66); experiment: fluorescence anisotropy; settings: phosphorothioate (non-hydrolyzable); Fluorescence anisotropy: 25 mM HEPES pH 7.2, 150 mM KCl, 2 mM MgCl2, 5 ug/ml BSA, 10 nM probe, read at 30 min; temperature not stated
[2] = system: Cas12a2 (SuCas12a2) (Sulfuricurvum sp. PC08-66); experiment: competition (cleavage inhibition); settings: phosphorothioate (non-cleavable); Fluorescence anisotropy: 25 mM HEPES pH 7.2, 150 mM KCl, 2 mM MgCl2, 5 ug/ml BSA, 10 nM probe, read at 30 min; temperature not stated

Substance	pKd [1]	pKi [2]
PT collateral ssRNA	8.17 and 7.43 and 7.72	
PT-ssRNA inhibitor		6.21 and 6.96
PT-ssDNA inhibitor		6.92 and 7.05 and 7.30
